Reference: article PMC4434323

How the values were obtained:
[1] = biological target: T1, zip-3 (W07G1.3) (Caenorhabditis elegans) (UniProt Q9XUK2)
T1 sequence: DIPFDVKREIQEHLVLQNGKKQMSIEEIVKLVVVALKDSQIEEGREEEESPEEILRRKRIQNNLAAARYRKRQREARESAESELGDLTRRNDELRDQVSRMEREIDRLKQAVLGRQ

[2] = biological target: T2, B0310.2 (B0310.2) (Caenorhabditis elegans) (UniProt Q10938)
T2 sequence: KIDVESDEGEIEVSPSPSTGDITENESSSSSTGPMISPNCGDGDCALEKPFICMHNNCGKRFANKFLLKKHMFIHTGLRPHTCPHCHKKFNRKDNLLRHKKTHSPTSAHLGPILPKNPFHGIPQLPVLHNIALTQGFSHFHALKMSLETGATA

[3] = biological target: T3, tbx-43 (Y46E12A.4) (Caenorhabditis elegans) (UniProt Q1T6W8)
T3 sequence: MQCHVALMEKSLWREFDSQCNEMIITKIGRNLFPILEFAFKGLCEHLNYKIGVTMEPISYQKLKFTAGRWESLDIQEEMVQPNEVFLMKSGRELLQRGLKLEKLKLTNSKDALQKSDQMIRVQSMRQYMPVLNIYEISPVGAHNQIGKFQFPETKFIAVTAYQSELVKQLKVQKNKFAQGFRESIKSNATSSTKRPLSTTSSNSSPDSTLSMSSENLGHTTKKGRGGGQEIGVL

[4] = biological target: T4, tbx-39 (Y73F8A.16) (Caenorhabditis elegans) (UniProt Q9NA56)
T4 sequence: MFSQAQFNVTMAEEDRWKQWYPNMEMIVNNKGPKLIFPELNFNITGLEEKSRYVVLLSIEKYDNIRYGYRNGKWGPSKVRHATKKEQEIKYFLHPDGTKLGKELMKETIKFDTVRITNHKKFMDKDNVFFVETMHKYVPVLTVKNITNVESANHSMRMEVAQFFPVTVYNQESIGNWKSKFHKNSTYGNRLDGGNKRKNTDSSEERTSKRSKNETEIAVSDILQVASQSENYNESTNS

[5] = biological target: T5, atf-5 (T04C10.4) (Caenorhabditis elegans) (UniProt Q22156)
T5 sequence: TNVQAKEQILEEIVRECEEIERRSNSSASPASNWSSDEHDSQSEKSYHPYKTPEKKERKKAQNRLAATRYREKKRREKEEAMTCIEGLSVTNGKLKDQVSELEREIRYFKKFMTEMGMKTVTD

[6] = biological target: atf-7 (C07G2.2) (Caenorhabditis elegans) (UniProt Q86MD3)
Chain of atf-7 (C07G2.2) (Caenorhabditis elegans) (Q86MD3 339-508): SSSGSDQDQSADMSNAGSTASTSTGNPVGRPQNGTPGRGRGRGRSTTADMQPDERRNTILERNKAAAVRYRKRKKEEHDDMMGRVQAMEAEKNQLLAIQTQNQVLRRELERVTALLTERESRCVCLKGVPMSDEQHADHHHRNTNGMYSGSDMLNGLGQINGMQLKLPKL

[7] = biological target: T6, tbx-38 (C24H11.3) (Caenorhabditis elegans) (UniProt Q9XVD5)
T6 sequence: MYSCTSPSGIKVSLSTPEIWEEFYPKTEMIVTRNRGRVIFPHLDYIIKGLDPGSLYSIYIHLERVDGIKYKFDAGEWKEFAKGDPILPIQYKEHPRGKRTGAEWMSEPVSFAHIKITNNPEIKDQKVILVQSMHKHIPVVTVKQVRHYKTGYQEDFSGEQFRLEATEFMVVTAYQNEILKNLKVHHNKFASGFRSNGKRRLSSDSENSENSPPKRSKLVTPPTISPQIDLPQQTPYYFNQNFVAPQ

[8] = biological target: T7, skn-1 (T19E7.2) (Caenorhabditis elegans) (UniProt P34707)
T7 sequence: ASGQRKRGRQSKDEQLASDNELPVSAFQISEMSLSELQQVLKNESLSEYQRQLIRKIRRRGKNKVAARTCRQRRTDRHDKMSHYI

[9] = biological target: gei-3 (T22H6.6) (Caenorhabditis elegans) (UniProt Q0G833)
Chain of gei-3 (T22H6.6) (Caenorhabditis elegans) (Q0G833 entry or part of it): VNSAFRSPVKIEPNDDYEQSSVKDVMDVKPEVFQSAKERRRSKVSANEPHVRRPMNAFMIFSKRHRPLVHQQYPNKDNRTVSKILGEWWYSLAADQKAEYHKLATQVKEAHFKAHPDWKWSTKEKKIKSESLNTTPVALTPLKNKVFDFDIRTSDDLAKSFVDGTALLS

## AGATGACG (double strand) [8-mer AGATGACG]
[1]
  binding signal (PBM E-score (-0.5 to 0.5)): 0.487

## TGAGGTAA (double strand) [8-mer TGAGGTAA]
[2]
  binding signal (PBM E-score (-0.5 to 0.5)): 0.49

## GGGTGTCA (double strand) [8-mer GGGTGTCA]
[3]
  binding signal (PBM E-score (-0.5 to 0.5)): 0.484

## ACCTCACT (double strand) [8-mer ACCTCACT]
[2]
  binding signal (PBM E-score (-0.5 to 0.5)): 0.478

## AACTTAGT (double strand) [8-mer AACTTAGT]
[4]
  binding signal (PBM E-score (-0.5 to 0.5)): 0.479

## ATGACGTA (double strand) [8-mer ATGACGTA]
[1]
  binding signal (PBM E-score (-0.5 to 0.5)): 0.49
[5]
  binding signal (PBM E-score (-0.5 to 0.5)): 0.459
[6]
  binding signal (PBM E-score (-0.5 to 0.5)): 0.498

## GTGAGGGA (double strand) [8-mer GTGAGGGA]
[2]
  binding signal (PBM E-score (-0.5 to 0.5)): 0.478

## ATCACACC (double strand) [8-mer ATCACACC]
[3]
  binding signal (PBM E-score (-0.5 to 0.5)): 0.486

## TGTACCAA (double strand) [8-mer TGTACCAA]
[4]
  binding signal (PBM E-score (-0.5 to 0.5)): 0.485

## CTTGGCAC (double strand) [8-mer CTTGGCAC]
[4]
  binding signal (PBM E-score (-0.5 to 0.5)): 0.477

## GTGAGGTA (double strand) [8-mer GTGAGGTA]
[2]
  binding signal (PBM E-score (-0.5 to 0.5)): 0.485

## GTGTGAAA (double strand) [8-mer GTGTGAAA]
[7]
  binding signal (PBM E-score (-0.5 to 0.5)): 0.483
[3]
  binding signal (PBM E-score (-0.5 to 0.5)): 0.494

## GGGTGCGA (double strand) [8-mer GGGTGCGA]
[7]
  binding signal (PBM E-score (-0.5 to 0.5)): 0.485

## GGTGCGAA (double strand) [8-mer GGTGCGAA]
[7]
  binding signal (PBM E-score (-0.5 to 0.5)): 0.494
[3]
  binding signal (PBM E-score (-0.5 to 0.5)): 0.48

## AGGTGTTA (double strand) [8-mer AGGTGTTA]
[7]
  binding signal (PBM E-score (-0.5 to 0.5)): 0.494
[3]
  binding signal (PBM E-score (-0.5 to 0.5)): 0.497

## GGTGTGAA (double strand) [8-mer GGTGTGAA]
[7]
  binding signal (PBM E-score (-0.5 to 0.5)): 0.497
[3]
  binding signal (PBM E-score (-0.5 to 0.5)): 0.499

## ATTCGCAC (double strand) [8-mer ATTCGCAC]
[7]
  binding signal (PBM E-score (-0.5 to 0.5)): 0.489

## CTACCAAG (double strand) [8-mer CTACCAAG]
[4]
  binding signal (PBM E-score (-0.5 to 0.5)): 0.473

## AACTTGGC (double strand) [8-mer AACTTGGC]
[4]
  binding signal (PBM E-score (-0.5 to 0.5)): 0.497

## CGTCATCA (double strand) [8-mer CGTCATCA]
[8]
  binding signal (PBM E-score (-0.5 to 0.5)): 0.492
[1]
  binding signal (PBM E-score (-0.5 to 0.5)): 0.489

## AGGTGTCA (double strand) [8-mer AGGTGTCA]
[3]
  binding signal (PBM E-score (-0.5 to 0.5)): 0.497

## ACCTCAAA (double strand) [8-mer ACCTCAAA]
[2]
  binding signal (PBM E-score (-0.5 to 0.5)): 0.481

## AACCTCAA (double strand) [8-mer AACCTCAA]
[2]
  binding signal (PBM E-score (-0.5 to 0.5)): 0.483

## AACTTGGT (double strand) [8-mer AACTTGGT]
[4]
  binding signal (PBM E-score (-0.5 to 0.5)): 0.496

## ATGACGTC (double strand) [8-mer ATGACGTC]
[1]
  binding signal (PBM E-score (-0.5 to 0.5)): 0.493
[5]
  binding signal (PBM E-score (-0.5 to 0.5)): 0.468
[6]
  binding signal (PBM E-score (-0.5 to 0.5)): 0.497

## AGTGTGAA (double strand) [8-mer AGTGTGAA]
[7]
  binding signal (PBM E-score (-0.5 to 0.5)): 0.496
[3]
  binding signal (PBM E-score (-0.5 to 0.5)): 0.494

## TGACATCA (double strand) [8-mer TGACATCA]
[1]
  binding signal (PBM E-score (-0.5 to 0.5)): 0.49
[5]
  binding signal (PBM E-score (-0.5 to 0.5)): 0.468

## ATGAGGGA (double strand) [8-mer ATGAGGGA]
[2]
  binding signal (PBM E-score (-0.5 to 0.5)): 0.478

## ATATGATG (double strand) [8-mer ATATGATG]
[1]
  binding signal (PBM E-score (-0.5 to 0.5)): 0.486

## CTAAGTTA (double strand) [8-mer CTAAGTTA]
[4]
  binding signal (PBM E-score (-0.5 to 0.5)): 0.48

## ACGTCATA (double strand) [8-mer ACGTCATA]
[1]
  binding signal (PBM E-score (-0.5 to 0.5)): 0.493
[5]
  binding signal (PBM E-score (-0.5 to 0.5)): 0.464
[6]
  binding signal (PBM E-score (-0.5 to 0.5)): 0.497

## AAGTGTGA (double strand) [8-mer AAGTGTGA]
[7]
  binding signal (PBM E-score (-0.5 to 0.5)): 0.494

## AACTTGGA (double strand) [8-mer AACTTGGA]
[4]
  binding signal (PBM E-score (-0.5 to 0.5)): 0.473

## ATCCCTCA (double strand) [8-mer ATCCCTCA]
[2]
  binding signal (PBM E-score (-0.5 to 0.5)): 0.482

## ATTCACAC (double strand) [8-mer ATTCACAC]
[7]
  binding signal (PBM E-score (-0.5 to 0.5)): 0.494
[3]
  binding signal (PBM E-score (-0.5 to 0.5)): 0.489

## GGTGTCAA (double strand) [8-mer GGTGTCAA]
[3]
  binding signal (PBM E-score (-0.5 to 0.5)): 0.495

## AACTTCGC (double strand) [8-mer AACTTCGC]
[4]
  binding signal (PBM E-score (-0.5 to 0.5)): 0.467

## AACGTCAT (double strand) [8-mer AACGTCAT]
[1]
  binding signal (PBM E-score (-0.5 to 0.5)): 0.486
[6]
  binding signal (PBM E-score (-0.5 to 0.5)): 0.495

## GAACCTCA (double strand) [8-mer GAACCTCA]
[2]
  binding signal (PBM E-score (-0.5 to 0.5)): 0.48

## TACCTCAA (double strand) [8-mer TACCTCAA]
[2]
  binding signal (PBM E-score (-0.5 to 0.5)): 0.495

## CCAAGTTA (double strand) [8-mer CCAAGTTA]
[4]
  binding signal (PBM E-score (-0.5 to 0.5)): 0.495

## GATGACGC (double strand) [8-mer GATGACGC]
[1]
  binding signal (PBM E-score (-0.5 to 0.5)): 0.493

## CCTCAATC (double strand) [8-mer CCTCAATC]
[2]
  binding signal (PBM E-score (-0.5 to 0.5)): 0.477

## AGGTGTGA (double strand) [8-mer AGGTGTGA]
[7]
  binding signal (PBM E-score (-0.5 to 0.5)): 0.498
[3]
  binding signal (PBM E-score (-0.5 to 0.5)): 0.499

## AAACTTGG (double strand) [8-mer AAACTTGG]
[4]
  binding signal (PBM E-score (-0.5 to 0.5)): 0.487

## ACGTCATG (double strand) [8-mer ACGTCATG]
[1]
  binding signal (PBM E-score (-0.5 to 0.5)): 0.486
[6]
  binding signal (PBM E-score (-0.5 to 0.5)): 0.496

## ACTTGGTA (double strand) [8-mer ACTTGGTA]
[4]
  binding signal (PBM E-score (-0.5 to 0.5)): 0.472

## GGGTGTGA (double strand) [8-mer GGGTGTGA]
[7]
  binding signal (PBM E-score (-0.5 to 0.5)): 0.487
[3]
  binding signal (PBM E-score (-0.5 to 0.5)): 0.49

## ACCTCAAT (double strand) [8-mer ACCTCAAT]
[2]
  binding signal (PBM E-score (-0.5 to 0.5)): 0.49

## GAGTGTGA (double strand) [8-mer GAGTGTGA]
[7]
  binding signal (PBM E-score (-0.5 to 0.5)): 0.484

## ACTTGGCA (double strand) [8-mer ACTTGGCA]
[4]
  binding signal (PBM E-score (-0.5 to 0.5)): 0.492

## CTACCTCA (double strand) [8-mer CTACCTCA]
[2]
  binding signal (PBM E-score (-0.5 to 0.5)): 0.484

## ATGACGCG (double strand) [8-mer ATGACGCG]
[1]
  binding signal (PBM E-score (-0.5 to 0.5)): 0.488

## AGGTGCGA (double strand) [8-mer AGGTGCGA]
[7]
  binding signal (PBM E-score (-0.5 to 0.5)): 0.49
[3]
  binding signal (PBM E-score (-0.5 to 0.5)): 0.48

## AACTTAGC (double strand) [8-mer AACTTAGC]
[4]
  binding signal (PBM E-score (-0.5 to 0.5)): 0.493

## ATATGACG (double strand) [8-mer ATATGACG]
[1]
  binding signal (PBM E-score (-0.5 to 0.5)): 0.493

## ATACCTCA (double strand) [8-mer ATACCTCA]
[2]
  binding signal (PBM E-score (-0.5 to 0.5)): 0.485

## GTGTGAAC (double strand) [8-mer GTGTGAAC]
[7]
  binding signal (PBM E-score (-0.5 to 0.5)): 0.492
[3]
  binding signal (PBM E-score (-0.5 to 0.5)): 0.485

## ATGAGGTA (double strand) [8-mer ATGAGGTA]
[2]
  binding signal (PBM E-score (-0.5 to 0.5)): 0.484

## CCAAGTTC (double strand) [8-mer CCAAGTTC]
[4]
  binding signal (PBM E-score (-0.5 to 0.5)): 0.477

## ATGAATGG (double strand) [8-mer ATGAATGG]
[9]
  binding signal (PBM E-score (-0.5 to 0.5)): 0.489

## TGAATTAA (double strand) [8-mer TGAATTAA]
[9]
  binding signal (PBM E-score (-0.5 to 0.5)): 0.474

## TCAATGGA (double strand) [8-mer TCAATGGA]
[9]
  binding signal (PBM E-score (-0.5 to 0.5)): 0.473

## TGAATGAA (double strand) [8-mer TGAATGAA]
[9]
  binding signal (PBM E-score (-0.5 to 0.5)): 0.491
